The values that follow come from WO2017222556A2 (dated 2017).

The target of one test is T1, NKG2D on NKL cells (human, UniProt P26718 1-216).
T1 sequence (looked up): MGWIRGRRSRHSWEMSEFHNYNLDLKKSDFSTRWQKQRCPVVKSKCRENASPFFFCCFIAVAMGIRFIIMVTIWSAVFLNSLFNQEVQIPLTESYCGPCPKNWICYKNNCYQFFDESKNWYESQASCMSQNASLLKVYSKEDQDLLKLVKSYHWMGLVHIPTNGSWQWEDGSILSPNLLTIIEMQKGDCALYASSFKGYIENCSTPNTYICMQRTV
In words: cell-based or functional assay.

In the next test the target is T2, mouse NKG2D-Fc (mouse, UniProt O54709 94-232).
T2 construct: also called murine NKG2D-Fc; murine NKG2D; not shown: Fc part, not described
T2 sequence (looked up): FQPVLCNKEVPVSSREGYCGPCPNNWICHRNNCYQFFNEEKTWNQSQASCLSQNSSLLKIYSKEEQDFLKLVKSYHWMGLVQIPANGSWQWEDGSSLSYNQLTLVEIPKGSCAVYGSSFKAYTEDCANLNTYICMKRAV
In words: competition ELISA: inhibition of mouse NKG2D-Fc binding to plate-coated MICA. Background: In an ELISA, binding on a coated surface is turned into a signal by an enzyme label.

In test [1] the target is T3, human NKG2D-Fc (human, UniProt P26718 78-216).
T3 construct: also called human NKG2D-Fc reagent; not shown: Fc part, not described
T3 sequence (looked up): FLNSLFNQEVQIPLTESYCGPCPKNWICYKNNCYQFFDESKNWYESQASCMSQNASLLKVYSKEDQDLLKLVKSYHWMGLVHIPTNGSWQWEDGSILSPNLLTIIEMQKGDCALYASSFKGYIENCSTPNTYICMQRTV
In words: competition ELISA: inhibition of 2 nM human NKG2D-Fc binding to plate-coated WT sMICA.

Test [2] deals with T4, biotinylated human NKG2D (human, UniProt P26718 78-216).
T4 construct: also called surface coated biotinylated human NKG2D; recombinant biotinylated NKG2D
T4 sequence (looked up): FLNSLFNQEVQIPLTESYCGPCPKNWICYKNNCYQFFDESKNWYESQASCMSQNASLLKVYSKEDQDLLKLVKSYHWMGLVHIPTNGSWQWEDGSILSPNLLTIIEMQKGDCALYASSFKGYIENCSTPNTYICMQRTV
In words: biolayer interferometry (Octet), surface coated biotinylated human NKG2D, 100 nM protein. (In general: Biolayer interferometry detects binding as a change in optical thickness at a sensor tip.)

Test [3] has as its target T4, biotinylated human NKG2D. In words: biolayer interferometry (Octet), surface-coated biotinylated human NKG2D.
Test [4] addresses T4, biotinylated human NKG2D. In words: biolayer interferometry (Octet), surface-coated biotinylated human NKG2D, titration 1-100 nM.
Test [5] addresses T3, human NKG2D-Fc. In words: competition ELISA: inhibition of human NKG2D-Fc binding to plate-coated WT sMICA.

B1: al-a2 variant 16 (ligand)
chain: EPHSLRYNLTVLSWDGSVQSGFLTEVHLDGQPFLRCDRQKCRAKPQGQWAEDVLGNKTWDRETRDLTGWGKDLRMTLAHIKDQKEGLHSLQEIRVCEIHEDNSTRSSQHFYYDGELFLSQNLETLEWTMPQSSRAQTLAMNVRNFLKEDAMETDTHYHAMRADCLQELRRYLKSGVVLRRTVPPMVQVTRSEASGGSGDRVTITCRASQDVSTAVAWYQQKPGKAPKLLIYSASFLYSGVPSRFSGSGSGTDFTLTISSLQPEDFATYYCQQSYTTPPTFGQGTKVEIKGGSSRSSSSGGGGSGGGGEVQLVESGGGLVQPGGSLRLSCAASGFTFTSTGISWVRQAPGKGLEWVGRIYPTNGSTNYADSVKGRFTISADTSKNTAYLQMNSLRAEDTAVYYCARTYGIYDLYVDYTEYVMDYWGQGTLVTVSSGGSSRSSSSGGGGSGGGGDIQMTQSPSSLSASGGSGQITVTCRASGFYPWNITLSWRQDGVSLSHDTQQWGDVLPDGQGTYQTWVATRISQGEEQRFTCYMEHSGQHSTHPVPSGKGSHHHHHH
In general, IC50 refers to the concentration that inhibits the measured activity by half. A low value points to inhibition by little substance. Consider B1, for which the “killing of FGFR3-expressing P815 cells by NKL cells, calcein-release assay, fold against WT at 0.78 nM” value in the test with NKG2D on NKL cells was about 15 fold. Further, in the test with mouse NKG2D-Fc, the binding result is recorded as “binds”. Also, in the test with human NKG2D-Fc [1], the IC50 was 700 pM and the “fold better binding to NKG2D than WT NKG2DL” value (“fold better binding” for short) is 27 fold. In the test with biotinylated human NKG2D [2], this molecule yielded a fold affinity increase relative to WT al -a2 of 30 fold and a fold reduction in the off-rate relative to WT of 18 fold.

B2: al-a2 variant 25 (ligand)
chain: EPHSLRYNLTVLSWDGSVQSGFLTEVHLDGQPFLRCDRQKCRAKPQGQWAEDVLGNKTWDRETRDLTGWGKDLRMTLAHIKDQKEGLHSLQEIRVCEIHEDNSTRSSQHFYYDGELFLSQNLETLEWTMPQSSRAQTLAMNVRNFLKEDAMETDTHYHAMRADCLSELRRYLKSGVVLRRTVPPMVQVTRSEASGGSGDRVTITCRASQDVSTAVAWYQQKPGKAPKLLIYSASFLYSGVPSRFSGSGSGTDFTLTISSLQPEDFATYYCQQSYTTPPTFGQGTKVEIKGGSSRSSSSGGGGSGGGGEVQLVESGGGLVQPGGSLRLSCAASGFTFTSTGISWVRQAPGKGLEWVGRIYPTNGSTNYADSVKGRFTISADTSKNTAYLQMNSLRAEDTAVYYCARTYGIYDLYVDYTEYVMDYWGQGTLVTVSSGGSSRSSSSGGGGSGGGGDIQMTQSPSSLSASGGSGQITVTCRASGFYPWNITLSWRQDGVSLSHDTQQWGDVLPDGQGTYQTWVATRISQGEEQRFTCYMEHSGQHSTHPVPSGKGSHHHHHH
A word on the Kd: it is the equilibrium constant for the complex coming apart. Low readings indicate tighter binding, high ones weaker binding. As to B2, in the test with NKG2D on NKL cells, the “EC50 for cell killing, fold improvement against variant 16” value is about 5 fold and the “killing of FGFR3-expressing P815 cells by NKL cells, calcein-release assay, fold against variant 16 at 0.2 nM” value is about 3 fold. Also, the “fold enhancement in equilibrium binding affinity against variant 16” value with biotinylated human NKG2D [3] amounted to 8 fold. Moreover, in the test with biotinylated human NKG2D [4], binding was characterised by a dissociation constant (Kd) of 62 pM.

B3: al-a2 variant 17 (ligand)
chain: EPHSLRYNLTVLSWDGSVQSGFLTEVHLDGQPFLRCDRQKCRAKPQGQWAEDVLGNKTWDRETRDLTLWGKDLRMTLAHIKDQKEGLHSLQEIRVCEIHEDNSTRSSQHFYYDGELFLSQNLETLEWTMPQSSRAQTLAMNVRNFLKEDAMETDTHYHAMRADCLQELRRYLKSGVVLRRTVPPMVQVTRSEASGGSGDRVTITCRASQDVSTAVAWYQQKPGKAPKLLIYSASFLYSGVPSRFSGSGSGTDFTLTISSLQPEDFATYYCQQSYTTPPTFGQGTKVEIKGGSSRSSSSGGGGSGGGGEVQLVESGGGLVQPGGSLRLSCAASGFTFTSTGISWVRQAPGKGLEWVGRIYPTNGSTNYADSVKGRFTISADTSKNTAYLQMNSLRAEDTAVYYCARTYGIYDLYVDYTEYVMDYWGQGTLVTVSSGGSSRSSSSGGGGSGGGGDIQMTQSPSSLSASGGSGQITVTCRASGFYPWNITLSWRQDGVSLSHDTQQWGDVLPDGQGTYQTWVATRISQGEEQRFTCYMEHSGQHSTHPVPSGKGSHHHHHH
Take B3: the “killing of FGFR3-expressing P815 cells by NKL cells, calcein-release assay, fold against WT at 0.78 nM” value in the test with NKG2D on NKL cells is about 15 fold. For the same molecule, in the test with human NKG2D-Fc [1], the IC50 was 600 pM and the “fold better binding” value came out at 32 fold. In the test with biotinylated human NKG2D [2], this molecule showed a fold affinity increase relative to WT al -a2 of 30 fold and a fold reduction in the off-rate relative to WT of 18 fold.

B4: al-a2 variant 18 (ligand)
chain: EPHSLRYNLTVLSWDGSVQPGFLTEVHLDGQPFLRCDRQKCRAKPQGQWAEDVLGNKTWDRETRDLTLWGKDLRMTLAHIKDQKEGLHSLQEIRVCEIHEDNSTRSSQHFYYDGELFLSQNLETLEWTMPQSSRAQTLAMNVRNFLKEDAMETDTHYHAMRADCLQELRRYLKSGVVLRRTVPPMVQVTRSEASGGSGDRVTITCRASQDVSTAVAWYQQKPGKAPKLLIYSASFLYSGVPSRFSGSGSGTDFTLTISSLQPEDFATYYCQQSYTTPPTFGQGTKVEIKGGSSRSSSSGGGGSGGGGEVQLVESGGGLVQPGGSLRLSCAASGFTFTSTGISWVRQAPGKGLEWVGRIYPTNGSTNYADSVKGRFTISADTSKNTAYLQMNSLRAEDTAVYYCARTYGIYDLYVDYTEYVMDYWGQGTLVTVSSGGSSRSSSSGGGGSGGGGDIQMTQSPSSLSASGGSGQITVTCRASGFYPWNITLSWRQDGVSLSHDTQQWGDVLPDGQGTYQTWVATRISQGEEQRFTCYMEHSGQHSTHPVPSGKGSHHHHHH
For B4, the “killing of FGFR3-expressing P815 cells by NKL cells, calcein-release assay, fold against WT at 0.78 nM” value with NKG2D on NKL cells is about 15 fold. Further, in the test with human NKG2D-Fc [1], the IC50 worked out at 500 pM and the “fold better binding” value turned out to be 38 fold. Also, in the test with biotinylated human NKG2D [2], the fold affinity increase relative to WT al -a2 was 30 fold and the fold reduction in the off-rate relative to WT worked out at 18 fold.

B5: al-a2 variant 48 (ligand)
chain: EPHSLRYNLTVLSWDGSVQSGFLTEVHLDGQPFLRCDRQKCRAKPQGQWAEDVLGNKTWDRETRDLTGWGKDLRMTLAHIKDQKEGLHSLQEIRVCEIHEDNSTRSSQHFYYDGELFLSQNLETLEWTMPQSSRAQTLAMNVRNFLKEDAMATDTHYIAMRADCLAELRRYLKSGVVLRRTVPPMVQVTRSEASGGSGDRVTITCRASQDVSTAVAWYQQKPGKAPKLLIYSASFLYSGVPSRFSGSGSGTDFTLTISSLQPEDFATYYCQQSYTTPPTFGQGTKVEIKGGSSRSSSSGGGGSGGGGEVQLVESGGGLVQPGGSLRLSCAASGFTFTSTGISWVRQAPGKGLEWVGRIYPTNGSTNYADSVKGRFTISADTSKNTAYLQMNSLRAEDTAVYYCARTYGIYDLYVDYTEYVMDYWGQGTLVTVSSGGSSRSSSSGGGGSGGGGDIQMTQSPSSLSASGGSGQITVTCRASGFYPWNITLSWRQDGVSLSHDTQQWGDVLPDGQGTYQTWVATRISQGEEQRFTCYMEHSGQHSTHPVPSGKGSHHHHHH
For the molecule B5, the “fold reduction in NKG2D binding affinity” value with biotinylated human NKG2D [4] came out at 250 fold.

B6: WED-MICA (ligand)
chain: EPHSLRYNLTVLSWDGSVQSGFLTEVHLDGQPFLRCDRQKCRAKPQGQWAEDVLGNKTWDRETRDLTGWGKDLRMTLAHIKDQKEGLHSLQEIRVCEIHEDNSTRSSQHFYYDGELFLSQNLETKEWTMPQSSRAQTLAMNVRNFLKEDAMETDTHYHAMHADCLQELRRYLKSGVVLRRTVPPMVQVTRSEASGGSGDRVTITCRASQDVSTAVAWYQQKPGKAPKLLIYSASFLYSGVPSRFSGSGSGTDFTLTISSLQPEDFATYYCQQSYTTPPTFGQGTKVEIKGGSSRSSSSGGGGSGGGGEVQLVESGGGLVQPGGSLRLSCAASGFTFTSTGISWVRQAPGKGLEWVGRIYPTNGSTNYADSVKGRFTISADTSKNTAYLQMNSLRAEDTAVYYCARTYGIYDLYVDYTEYVMDYWGQGTLVTVSSGGSSRSSSSGGGGSGGGGDIQMTQSPSSLSASGGSGQITVTCRASGFYPWNITLSWRQDGVSLSHDTQQWGDVLPDGQGTYQTWVATRISQGEEQRFTCYMEHSGQHSTHPVPSGKGSHHHHHH
notes: also called WED- al-cc2 domains; WED soluble MICA
Turning to B6, the binding result with mouse NKG2D-Fc and with human NKG2D-Fc [5] was “binds” in each case.

B7: al-a2 variant 15 (ligand)
chain: EPHSLRYNLTVLSWDGSVQSGFLTEVHLDGQPFLRCDRQKCRAKPQGQWAEDVLGNKTWDRETRDLTGWGKDLRMTLAHIKDQKEGLHSLQEIRVCEIHEDNSTRSSQHFYYDGELFLSQNLETNEWTMPQSSRAQTLAMNVRNFLKEDAMETDTHYHAMRADCLQELRRYLKSGVVLRRTVPPMVQVTRSEASGGSGDRVTITCRASQDVSTAVAWYQQKPGKAPKLLIYSASFLYSGVPSRFSGSGSGTDFTLTISSLQPEDFATYYCQQSYTTPPTFGQGTKVEIKGGSSRSSSSGGGGSGGGGEVQLVESGGGLVQPGGSLRLSCAASGFTFTSTGISWVRQAPGKGLEWVGRIYPTNGSTNYADSVKGRFTISADTSKNTAYLQMNSLRAEDTAVYYCARTYGIYDLYVDYTEYVMDYWGQGTLVTVSSGGSSRSSSSGGGGSGGGGDIQMTQSPSSLSASGGSGQITVTCRASGFYPWNITLSWRQDGVSLSHDTQQWGDVLPDGQGTYQTWVATRISQGEEQRFTCYMEHSGQHSTHPVPSGKGSHHHHHH
As to B7, the binding result in the test with mouse NKG2D-Fc is “binds”. In the test with human NKG2D-Fc [1], the IC50 came to 1700 pM and the “fold better binding” value worked out at 11 fold.
